The target of this experiment is T1, C-RANKL protein (RANKL fragment with N-terminal cysteine-containing amino acid linker and hexa-histidine tag, … (mouse, UniProt O35235 137-316)).
T1 construct: Coated on ELISA plates at 10 ug/ml
T1 sequence: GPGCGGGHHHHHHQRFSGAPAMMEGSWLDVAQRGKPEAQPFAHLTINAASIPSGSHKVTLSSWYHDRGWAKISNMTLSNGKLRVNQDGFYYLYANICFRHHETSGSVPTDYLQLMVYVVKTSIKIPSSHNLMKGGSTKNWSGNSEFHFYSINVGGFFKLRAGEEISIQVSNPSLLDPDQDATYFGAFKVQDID
The experiment in a line: ELISA, plates coated with 10 ug/ml C-RANKL, serial dilutions of RANK-Fc, anti-Fc-HRP detection. (ELISA stands for enzyme-linked immunosorbent assay.)

B1: purified RANK-Fc fusion protein (Fc fusion)
chain: VTPPCTQERHYEHLGRCCSRCEPGKYLSSKCTPTSDSVCLPCGPDEYLDTWNEEDKCLLHKVCDAGKALVAVDPGNHTAPRRCACTAGYHWNSDCECCRRNTECAPGFGAQHPLQLNKDTVCTPCLLGFFSDVFSSTDKCKPWTNCTLLGKLEAHQGTTESDVVCSSSMTLRRPPKEAQAYLPS
In the case of B1, the EC50 (usually the concentration needed to bring the measured effect to its halfway point) was in the range of 1 to 3 nM.

The values above are taken from patent publication US7128911.
